Here are results for one substance from publication PMC8684756.

Assay [1] concerns the target Int^C-mCitrine-Tom7. In words: protein trans-splicing.
The target in assay [2] is Int^C-mCitrine-hFis1. In words: protein trans-splicing.

Tom20-mCherry-Int^N: the percent of Tom20-FP1 spliced to the partner in assay [1] was found to be 30%; in assay [2], 50%.
